Assay results reported in patent US20230257479A1 (Genmab, published 2023).

Key:
[1] = target: T1, full length human 5T4 (SEQ ID NO: 1) on cells (human, UniProt Q13641 32-420); test: flow cytometry, MDA-MB-231 cells, PE secondary [III)D]
T1 construct: Uniprot Q13641; residues 1-31 are the signal peptide; Used both for transfected HEK-293 cells and for 5T4-expressing human tumor cell lines
T1 sequence: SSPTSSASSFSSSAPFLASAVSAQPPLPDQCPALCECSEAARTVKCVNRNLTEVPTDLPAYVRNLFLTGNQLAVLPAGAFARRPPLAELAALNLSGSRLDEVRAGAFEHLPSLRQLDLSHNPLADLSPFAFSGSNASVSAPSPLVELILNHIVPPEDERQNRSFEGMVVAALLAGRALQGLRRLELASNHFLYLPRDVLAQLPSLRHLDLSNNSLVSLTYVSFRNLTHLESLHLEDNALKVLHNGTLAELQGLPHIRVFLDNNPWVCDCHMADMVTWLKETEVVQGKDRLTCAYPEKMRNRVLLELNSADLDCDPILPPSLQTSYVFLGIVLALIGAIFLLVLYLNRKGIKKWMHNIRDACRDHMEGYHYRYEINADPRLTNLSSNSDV

[2] = target: T2, full length cynomolgus monkey 5T4 on transfected HEK-293 cells (cynomolgus monkey, UniProt Q4R8Y9 35-420); test: flow cytometry, HEK-293 cells transfected with cynomolgus monkey 5T4, PE secondary [II)D]
T2 construct: Uniprot Q4R8Y9; residues 1-34 are the signal peptide; also called cynomolgus 5T4
T2 sequence: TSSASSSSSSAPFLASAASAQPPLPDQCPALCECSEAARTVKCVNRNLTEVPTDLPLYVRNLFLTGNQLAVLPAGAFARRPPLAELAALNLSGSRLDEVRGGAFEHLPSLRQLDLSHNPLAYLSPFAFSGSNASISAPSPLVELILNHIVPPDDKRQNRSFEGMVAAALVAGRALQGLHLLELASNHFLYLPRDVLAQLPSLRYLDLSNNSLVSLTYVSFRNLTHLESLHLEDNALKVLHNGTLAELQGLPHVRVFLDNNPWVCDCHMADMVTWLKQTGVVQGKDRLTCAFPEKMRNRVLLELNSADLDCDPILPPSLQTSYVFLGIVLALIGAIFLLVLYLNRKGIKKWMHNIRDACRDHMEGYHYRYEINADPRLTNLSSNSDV

[3] = target: T1, full length human 5T4 (SEQ ID NO: 1) on …; test: flow cytometry, HeLa cells, PE secondary [II)D]
[4] = target: T3, human 5T4ECDHis (mature protein of SEQ ID NO: 99) (human, UniProt Q13641 32-355); test: BLI cross-block; competitor (immobilised): IgG1-5T4-207-FEAR
T3 construct: ECD of human 5T4 (aa 1-355 of Uniprot Q13641) with C-terminal His tag; residues 1-31 are the signal peptide; also called ECD of human 5T4 with a C-terminal His tag
T3 sequence: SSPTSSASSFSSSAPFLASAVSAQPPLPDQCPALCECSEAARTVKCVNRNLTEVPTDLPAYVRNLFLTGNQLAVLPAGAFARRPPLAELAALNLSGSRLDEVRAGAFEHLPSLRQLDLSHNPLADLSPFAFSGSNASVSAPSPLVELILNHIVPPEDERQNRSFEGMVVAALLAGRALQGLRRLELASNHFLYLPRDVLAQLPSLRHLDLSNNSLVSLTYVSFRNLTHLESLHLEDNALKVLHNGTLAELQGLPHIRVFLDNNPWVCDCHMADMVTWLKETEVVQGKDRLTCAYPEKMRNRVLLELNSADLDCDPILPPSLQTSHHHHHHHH

[5] = target: T3, human 5T4ECDHis (mature protein of SEQ …); test: BLI cross-block; competitor (immobilised): IgG1-5T4-226-FEAR
[6] = target: T3, human 5T4ECDHis (mature protein of SEQ …); test: BLI cross-block; competitor (immobilised): IgG1-5T4-H8-FEAR
[7] = target: T2, full length cynomolgus monkey 5T4 on …; test: flow cytometry, HEK-293 cells transfected with cynomolgus monkey 5T4, PE secondary [II)F]
[8] = target: T3, human 5T4ECDHis (mature protein of SEQ …); test: BLI cross-block; competitor (immobilised): IgG1-5T4-085-FEAR
[9] = target: T3, human 5T4ECDHis (mature protein of SEQ …); test: BLI cross-block; competitor (immobilised): IgG1-5T4-059-FEAR
[10] = target: T3, human 5T4ECDHis (mature protein of SEQ …); test: BLI cross-block; competitor (immobilised): IgG1-5T4-076-FEAR
[11] = target: T3, human 5T4ECDHis (mature protein of SEQ …); test: BLI cross-block; competitor (immobilised): IgG1-5T4-127-FEAR
[12] = target: T1, full length human 5T4 (SEQ ID NO: 1) on …; test: flow cytometry, MDA-MB-231 cells, PE secondary [III)E]
[13] = target: T3, human 5T4ECDHis (mature protein of SEQ …); test: BLI cross-block; competitor (immobilised): IgG1-5T4-A1-F405L
[14] = target: T3, human 5T4ECDHis (mature protein of SEQ …); test: BLI cross-block; competitor (immobilised): IgG1-5T4-106-FEAR
[15] = target: T3, human 5T4ECDHis (mature protein of SEQ …); test: BLI cross-block; competitor (immobilised): IgG1-5T4-A3-F405L
[16] = target: T1, full length human 5T4 (SEQ ID NO: 1) on …; test: flow cytometry, MDA-MB-231 cells, FITC secondary [I)C]
[17] = target: T1, full length human 5T4 (SEQ ID NO: 1) on …; test: flow cytometry, HeLa cells, PE secondary [II)B]
[18] = target: T1, full length human 5T4 (SEQ ID NO: 1) on …; test: flow cytometry, MDA-MB-231 cells, PE secondary [III)B]
[19] = target: T1, full length human 5T4 (SEQ ID NO: 1) on …; test: flow cytometry, HeLa cells, FITC secondary [I)C]
[20] = target: T1, full length human 5T4 (SEQ ID NO: 1) on …; test: flow cytometry, HEK-293 cells transfected with human 5T4, PE secondary [II)B]
[21] = target: T1, full length human 5T4 (SEQ ID NO: 1) on …; test: flow cytometry, HEK-293 cells transfected with human 5T4, FITC secondary [I)B]
[22] = target: T2, full length cynomolgus monkey 5T4 on …; test: flow cytometry, HEK-293 cells transfected with cynomolgus monkey 5T4, PE secondary [II)B]
[23] = target: T2, full length cynomolgus monkey 5T4 on …; test: flow cytometry, HEK-293 cells transfected with cynomolgus monkey 5T4, FITC secondary [I)B]
[24] = target: T1, full length human 5T4 (SEQ ID NO: 1) on …; test: flow cytometry, HeLa cells, PE secondary [II)G]
[25] = target: T2, full length cynomolgus monkey 5T4 on …; test: flow cytometry, HEK-293 cells transfected with cynomolgus monkey 5T4, PE secondary [II)H]

B1: bsIgG1-huCD3-H101G-FEALx5T4-106-FEAR (bispecific antibody)
heavy: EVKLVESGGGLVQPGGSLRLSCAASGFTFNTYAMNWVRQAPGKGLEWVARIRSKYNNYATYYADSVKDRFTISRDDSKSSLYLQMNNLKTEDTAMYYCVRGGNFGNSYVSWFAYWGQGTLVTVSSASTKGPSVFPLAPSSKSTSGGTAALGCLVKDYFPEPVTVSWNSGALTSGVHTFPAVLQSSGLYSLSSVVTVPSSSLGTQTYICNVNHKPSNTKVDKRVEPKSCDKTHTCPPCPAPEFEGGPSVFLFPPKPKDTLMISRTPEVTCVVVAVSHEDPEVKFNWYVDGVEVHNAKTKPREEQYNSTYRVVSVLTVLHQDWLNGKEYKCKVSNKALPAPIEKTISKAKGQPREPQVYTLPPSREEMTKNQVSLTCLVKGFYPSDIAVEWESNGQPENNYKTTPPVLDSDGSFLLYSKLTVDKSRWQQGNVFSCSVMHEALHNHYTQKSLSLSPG
light: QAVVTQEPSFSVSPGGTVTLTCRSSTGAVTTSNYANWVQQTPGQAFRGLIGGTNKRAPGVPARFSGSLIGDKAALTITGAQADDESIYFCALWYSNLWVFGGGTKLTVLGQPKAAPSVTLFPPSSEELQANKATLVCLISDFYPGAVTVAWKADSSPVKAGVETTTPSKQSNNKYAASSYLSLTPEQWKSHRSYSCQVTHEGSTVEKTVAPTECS
VH: EVQLVQSGAEVKKPGESLKISCKGSGYRFTSYWIGWVRQMPGKGLEWMGIIYPGDSDARYSPSFQGQVTISADKSISTAYLQWSSLKASDTGMYYCARSVLFDYWGQGTLVTVSS
VL: AIQLTQSPSSLSASVGDRVTITCRASQGISSALAWYQQKPGKAPKLLIYDVSNLESGVPSRFSGSGSGTDFTLTISSLQPEDFATYYCQQFNSYPHTFGQGTKLEIK
notes: Fab-arm exchange product
[1]
  EC50 (read off the curve): ~0.1 µg/mL
[2]
  binding result: binds
[3]
  EC50 (read off the curve): ~0.1 µg/mL

B2: IgG1-5T4-085-FEAR (antibody, V domains shown)
VH: EVQLLESGGGLVQPGGSLRLSCAASGFTFSSYAMSWVRQAPGKGLEWVSAISGSGGSTYNADSVKGRFTIFRDNSKNTLYLHMNSLRAEDTAVYYCARDPGYNNVEYLDHWGQGTLVTVSS
VL: AIQLTQSPSSLSASVGDRVTITCRASQGISSALAWYQQKPGKAPKLLIYDASSLESGVPSRFSGSGSGTDFTLTISSLQPEDFATYYCQQFNSYPLTFGGGTKVEIK
notes: Monospecific, bivalent human IgG1 kappa with L234F, L235E, D265A, K409R (FEAR)
[4]
  corrected association response: 1.03 nm
[5]
  corrected association response: 1.35 nm
[6]
  corrected association response: -0.02 nm
[7]
  EC50 (read off the curve): ~0.008 µg/mL
[8]
  corrected association response: -0.01 nm
[9]
  corrected association response: -0.02 nm
[10]
  corrected association response: -0.02 nm
[11]
  corrected association response: -0.01 nm
[12]
  EC50 (read off the curve): ~0.04 µg/mL
[13]
  corrected association response: 0.72 nm
[14]
  corrected association response: -0.04 nm
[15]
  corrected association response: 0 nm

B3: bsIgG1-huCD3-H101G-FEALx5T4-226-FEAR (bispecific antibody)
heavy: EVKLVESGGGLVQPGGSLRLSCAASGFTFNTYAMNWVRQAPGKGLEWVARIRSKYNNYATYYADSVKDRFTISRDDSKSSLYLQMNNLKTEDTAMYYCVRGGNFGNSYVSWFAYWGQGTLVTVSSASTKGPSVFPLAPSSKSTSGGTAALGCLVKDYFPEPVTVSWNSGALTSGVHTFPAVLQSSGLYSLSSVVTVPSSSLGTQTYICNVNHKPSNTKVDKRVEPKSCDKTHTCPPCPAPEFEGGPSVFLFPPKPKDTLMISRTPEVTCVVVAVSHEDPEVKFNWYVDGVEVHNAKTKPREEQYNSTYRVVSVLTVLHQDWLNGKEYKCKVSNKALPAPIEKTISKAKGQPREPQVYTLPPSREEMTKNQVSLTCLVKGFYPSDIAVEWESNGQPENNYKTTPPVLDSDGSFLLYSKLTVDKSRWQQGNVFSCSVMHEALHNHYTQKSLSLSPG
light: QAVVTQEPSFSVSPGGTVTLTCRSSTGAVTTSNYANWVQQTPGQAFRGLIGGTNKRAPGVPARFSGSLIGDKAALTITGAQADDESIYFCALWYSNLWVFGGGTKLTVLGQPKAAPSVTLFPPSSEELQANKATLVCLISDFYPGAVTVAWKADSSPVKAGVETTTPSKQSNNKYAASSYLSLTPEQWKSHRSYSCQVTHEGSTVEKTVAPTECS
VH: QVQLQQWGAGLLKPSETLSLTCAVYGGSFSGYYWSWIRQPPGKGLEWIGEIDHSGSTNYNPSLKSRVTISVDTSKNQFSLKLSSVTAADTAVYYCAAWFGELWDYYYGMDVWGQGTTVTVSS
VL: EIVLTQSPATLSLSPGERATLSCRASQSVSSFLAWYQQKPGQAPRLLIYDASNRATGIPARFSGSGSGTDFTLTISSLEPEDFAVYYCQQRSNWPLTFGQGTRLEIK
notes: Fab-arm exchange product
[16]
  EC50 (read off the curve): ~0.1 µg/mL
[17]
  EC50 (read off the curve): ~0.04 µg/mL
[18]
  EC50 (read off the curve): ~0.04 µg/mL
[19]
  EC50 (read off the curve): ~0.02 µg/mL
[20]
  EC50 (read off the curve): ~0.1 µg/mL
[21]
  EC50 (read off the curve): ~0.2 µg/mL
[22]
  EC50 (read off the curve): ~0.06 µg/mL
[23]
  EC50 (read off the curve): ~0.1 µg/mL

B4: bsIgG1-huCD3-H101G-FEALx5T4-A1-FEAR (bispecific antibody)
heavy: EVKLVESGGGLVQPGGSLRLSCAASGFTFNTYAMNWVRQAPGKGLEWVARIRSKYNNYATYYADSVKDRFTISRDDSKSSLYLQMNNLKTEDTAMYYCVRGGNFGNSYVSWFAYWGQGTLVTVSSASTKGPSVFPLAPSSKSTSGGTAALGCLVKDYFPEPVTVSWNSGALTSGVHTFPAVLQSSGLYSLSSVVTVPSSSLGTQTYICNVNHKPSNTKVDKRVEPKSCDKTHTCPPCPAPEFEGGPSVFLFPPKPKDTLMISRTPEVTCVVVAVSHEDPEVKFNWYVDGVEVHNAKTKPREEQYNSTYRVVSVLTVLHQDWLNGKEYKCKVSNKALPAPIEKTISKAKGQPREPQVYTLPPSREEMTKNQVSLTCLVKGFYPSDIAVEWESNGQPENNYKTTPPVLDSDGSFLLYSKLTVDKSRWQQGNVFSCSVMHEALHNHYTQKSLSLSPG
light: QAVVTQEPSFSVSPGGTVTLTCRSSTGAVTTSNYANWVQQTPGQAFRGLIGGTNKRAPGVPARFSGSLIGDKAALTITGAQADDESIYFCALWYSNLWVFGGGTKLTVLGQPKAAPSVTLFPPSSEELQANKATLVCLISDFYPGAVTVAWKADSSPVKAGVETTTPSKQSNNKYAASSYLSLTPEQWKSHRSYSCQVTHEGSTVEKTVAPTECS
VH: QIQLVQSGPELKKPGETVKISCKASGYTFTNFGMNWVKQGPGEGLKWMGWINTNTGEPRYAEEFKGRFAFSLETTASTAYLQINNLKNEDTATYFCARDWDGAYFFDYWGQGTTLTVSS
VL: SIVMTQTPKFLLVSAGDRVTITCKASQSVSNDVAWYQQKPGQSPKLLINFATNRYTGVPNRFTGSGYGTDFTFTISTVQAEDLALYFCQQDYSSPWTFGGGTKLEIK
notes: Fab-arm exchange product
[24]
  binding result: binds
[25]
  binding result: binds

B5: IgG1-5T4-A1-FEAR (antibody, V domains shown)
VH: QIQLVQSGPELKKPGETVKISCKASGYTFTNFGMNWVKQGPGEGLKWMGWINTNTGEPRYAEEFKGRFAFSLETTASTAYLQINNLKNEDTATYFCARDWDGAYFFDYWGQGTTLTVSS
VL: SIVMTQTPKFLLVSAGDRVTITCKASQSVSNDVAWYQQKPGQSPKLLINFATNRYTGVPNRFTGSGYGTDFTFTISTVQAEDLALYFCQQDYSSPWTFGGGTKLEIK
notes: Based on A1 from Wyeth; IgG1 with L234F, L235E, D265A, K409R (FEAR)
[24]
  binding result: binds
[25]
  EC50 (read off the curve): ~0.1 µg/mL
